# Test results: US20130165389A1 (AMUNIX OPERATING, published 2013)
# T1: human IL6R (human, UniProt P08887 20-358, limits assumed)
# T1 construct: also called IL-6 receptor
# T1 sequence (looked up): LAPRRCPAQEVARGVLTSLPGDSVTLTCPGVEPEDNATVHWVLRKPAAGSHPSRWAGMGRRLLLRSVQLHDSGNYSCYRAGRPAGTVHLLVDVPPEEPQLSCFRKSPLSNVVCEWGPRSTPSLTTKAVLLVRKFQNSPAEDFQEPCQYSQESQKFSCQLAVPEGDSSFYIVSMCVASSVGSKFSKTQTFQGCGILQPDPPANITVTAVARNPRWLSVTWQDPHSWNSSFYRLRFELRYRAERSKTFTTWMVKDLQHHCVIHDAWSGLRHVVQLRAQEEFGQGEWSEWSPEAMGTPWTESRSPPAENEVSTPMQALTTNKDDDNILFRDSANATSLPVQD
# Key:
# [1] = target: T2, human CD40-Fc fusion (human, UniProt P25942 21-193); experiment: ELISA, dilution series of cleared lysate on coated human CD40-Fc; Kd from EC50 and an estimated 10 µM in the lysate
# T2 construct: Coated at 100 ng/well; not shown: Fc part of the fusion
# T2 sequence (P25942 21-193 limits assumed): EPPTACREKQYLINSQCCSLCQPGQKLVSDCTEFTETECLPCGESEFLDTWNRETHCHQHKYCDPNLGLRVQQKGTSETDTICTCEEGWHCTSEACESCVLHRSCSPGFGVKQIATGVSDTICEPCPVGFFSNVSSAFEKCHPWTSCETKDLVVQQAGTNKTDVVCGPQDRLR
# [2] = target: T1, human IL6R; experiment: ELISA, coated human IL6R, biotinylated anti-XTEN antibody and streptavidin-HRP
Kd [1] [nM],EC50 [2] [nM],Binder
~50,–,"anti-CD40-AE864, AC384 (scFv, Tested as cleared E. coli lysate, not purified; also called aCD40-XTEN; pBC0009) scFv: MAEIVLTQSPATLSLSPGERATLSCRASQSISDYLHWYQQKPGQAPRLLIYYASHSISGIPARFSGSGSGTDFTLTISSLEPEDFAVYYCQHGHSYPWTFGGGTKVEIKTGSGEGSEGEGGGEGSEGEGSGEGGEGEGSGTQVQLVQSGSELKKPGASVKVSCKASGYAFTTTGMQWVRQAPGQGLEWMGWINTHSGVPKYVEDFKGRFVFSLDTSVSTAYLQISSLKAEDTAVYYCARSGNGNYDLAYFKYWGQGTLVTVSSGGSPAGSPTSTEEGTSESATPESGPGTSTEPSEGSAPGSPAGSPTSTEEGTSTEPSEGSAPGTSTEPSEGSAPGTSESATPESGPGSEPATSGSETPGSEPATSGSETPGSPAGSPTSTEEGTSESATPESGPGTSTEPSEGSAPGTSTEPSEGSAPGSPAGSPTSTEEGTSTEPSEGSAPGTSTEPSEGSAPGTSESATPESGPGTSTEPSEGSAPGTSESATPESGPGSEPATSGSETPGTSTEPSEGSAPGTSTEPSEGSAPGTSESATPESGPGTSESATPESGPGSPAGSPTSTEEGTSESATPESGPGSEPATSGSETPGTSESATPESGPGTSTEPSEGSAPGTSTEPSEGSAPGTSTEPSEGSAPGTSTEPSEGSAPGTSTEPSEGSAPGTSTEPSEGSAPGSPAGSPTSTEEGTSTEPSEGSAPGTSESATPESGPGSEPATSGSETPGTSESATPESGPGSEPATSGSETPGTSESATPESGPGTSTEPSEGSAPGTSESATPESGPGSPAGSPTSTEEGSPAGSPTSTEEGSPAGSPTSTEEGTSESATPESGPGTSTEPSEGSAPGTSESATPESGPGSEPATSGSETPGTSESATPESGPGSEPATSGSETPGTSESATPESGPGTSTEPSEGSAPGSPAGSPTSTEEGTSESATPESGPGSEPATSGSETPGTSESATPESGPGSPAGSPTSTEEGSPAGSPTSTEEGTSTEPSEGSAPGTSESATPESGPGTSESATPESGPGTSESATPESGPGSEPATSGSETPGSEPATSGSETPGSPAGSPTSTEEGTSTEPSEGSAPGTSTEPSEGSAPGSEPATSGSETPGTSESATPESGPGTSTEPSEGSAP"
~50,–,"anti-CD40-AE864, AC385 (scFv, Tested as cleared E. coli lysate, not purified; also called aCD40-XTEN; pBC0010) scFv: MAEIVLTQSPATLSLSPGERATLSCRASQSISDYLHWYQQKPGQAPRLLIYYASHSISGIPARFSGSGSGTDFTLTISSLEPEDFAVYYCQHGHSYPWTFGGGTKVEIKTGSGEGSEGEGGGEGSEGEGSGEGGEGEGSGTQVQLVQSGSELKKPGASVKVSCKASGYAFTTTGMQWVRQAPGQGLEWMGWINTHSGVPKYVEDFKGRFVFSLDTSVSTAYLQISSLKAEDTAVYYCARSGNGNYDLAYFKYWGQGTLVTVSSGGSPAGSPTSTEEGTSESATPESGPGTSTEPSEGSAPGSPAGSPTSTEEGTSTEPSEGSAPGTSTEPSEGSAPGTSESATPESGPGSEPATSGSETPGSEPATSGSETPGSPAGSPTSTEEGTSESATPESGPGTSTEPSEGSAPGTSTEPSEGSAPGSPAGSPTSTEEGTSTEPSEGSAPGTSTEPSEGSAPGTSESATPESGPGTSTEPSEGSAPGTSESATPESGPGSEPATSGSETPGTSTEPSEGSAPGTSTEPSEGSAPGTSESATPESGPGTSESATPESGPGSPAGSPTSTEEGTSESATPESGPGSEPATSGSETPGTSESATPESGPGTSTEPSEGSAPGTSTEPSEGSAPGTSTEPSEGSAPGTSTEPSEGSAPGTSTEPSEGSAPGTSTEPSEGSAPGSPAGSPTSTEEGTSTEPSEGSAPGTSESATPESGPGSEPATSGSETPGTSESATPESGPGSEPATSGSETPGTSESATPESGPGTSTEPSEGSAPGTSESATPESGPGSPAGSPTSTEEGSPAGSPTSTEEGSPAGSPTSTEEGTSESATPESGPGTSTEPSEGSAPGTSESATPESGPGSEPATSGSETPGTSESATPESGPGSEPATSGSETPGTSESATPESGPGTSTEPSEGSAPGSPAGSPTSTEEGTSESATPESGPGSEPATSGSETPGTSESATPESGPGSPAGSPTSTEEGSPAGSPTSTEEGTSTEPSEGSAPGTSESATPESGPGTSESATPESGPGTSESATPESGPGSEPATSGSETPGSEPATSGSETPGSPAGSPTSTEEGTSTEPSEGSAPGTSTEPSEGSAPGSEPATSGSETPGTSESATPESGPGTSTEPSEGSAP"
–,5,"aIL6R scFv-AE864, AC342 (scFv, Single-chain scFv-XTEN fusion expressed in E. coli; also called aIL6R-XTEN) scFv: MADIQMTQSPSSLSASVGDRVTITCRASQDISSYLNWYQQKPGKAPKLLIYYTSRLHSGVPSRFSGSGSGTDFTFTISSLQPEDIATYYCQQGNTLPYTFGQGTKVEIKTGSGEGSEGEGGGEGSEGEGSGEGGEGEGSGSQVQLQESGPGLVRPSQTLSLTCTVSGYSITSDHAWSWVRQPPGRGLEWIGYISYSGITTYNPSLKSRVTMLRDTSKNQFSLRLSSVTAADTAVYYCARSLARTTAMDYWGQGSLVTVSSGSPGSPAGSPTSTEEGTSESATPESGPGTSTEPSEGSAPGSPAGSPTSTEEGTSTEPSEGSAPGTSTEPSEGSAPGTSESATPESGPGSEPATSGSETPGSEPATSGSETPGSPAGSPTSTEEGTSESATPESGPGTSTEPSEGSAPGTSTEPSEGSAPGSPAGSPTSTEEGTSTEPSEGSAPGTSTEPSEGSAPGTSESATPESGPGTSTEPSEGSAPGTSESATPESGPGSEPATSGSETPGTSTEPSEGSAPGTSTEPSEGSAPGTSESATPESGPGTSESATPESGPGSPAGSPTSTEEGTSESATPESGPGSEPATSGSETPGTSESATPESGPGTSTEPSEGSAPGTSTEPSEGSAPGTSTEPSEGSAPGTSTEPSEGSAPGTSTEPSEGSAPGTSTEPSEGSAPGSPAGSPTSTEEGTSTEPSEGSAPGTSESATPESGPGSEPATSGSETPGTSESATPESGPGSEPATSGSETPGTSESATPESGPGTSTEPSEGSAPGTSESATPESGPGSPAGSPTSTEEGSPAGSPTSTEEGSPAGSPTSTEEGTSESATPESGPGTSTEPSEGSAPGTSESATPESGPGSEPATSGSETPGTSESATPESGPGSEPATSGSETPGTSESATPESGPGTSTEPSEGSAPGSPAGSPTSTEEGTSESATPESGPGSEPATSGSETPGTSESATPESGPGSPAGSPTSTEEGSPAGSPTSTEEGTSTEPSEGSAPGTSESATPESGPGTSESATPESGPGTSESATPESGPGSEPATSGSETPGSEPATSGSETPGSPAGSPTSTEEGTSTEPSEGSAPGTSTEPSEGSAPGSEPATSGSETPGTSESATPESGPGTSTEPSEGSAPG"
